Source: PMC10866396 (Molecular cancer therapeutics, 2023)

Biological target: Avi-tagged-eIF4E (human, UniProt P06730 1-217, biotin (co-transfected bacterial biotin ligase BirA; loaded on streptavidin tips))
Test: BLI

Sequence of Avi-tagged-eIF4E (P06730 whole entry): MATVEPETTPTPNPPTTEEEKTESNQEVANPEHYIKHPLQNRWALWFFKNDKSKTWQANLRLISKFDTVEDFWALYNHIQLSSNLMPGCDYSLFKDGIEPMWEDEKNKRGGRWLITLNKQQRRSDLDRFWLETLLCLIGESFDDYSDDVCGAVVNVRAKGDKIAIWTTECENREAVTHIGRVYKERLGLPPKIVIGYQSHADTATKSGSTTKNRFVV

- Kd: 25 µM
Binder: YPYAASPA [Pep8 peptide]
